According to patent US20120172293A1 (Takeda / Millennium, published 2012):
Positions of bridges follow the written chain, without caps; N, C: chain ends. Non-standard residues stand in square brackets, D forms with d. No end group written: not given here. 4Pal = N[C@@H](Cc1ccncc1)C(=O)O; Cha = N[C@@H](CC1CCCCC1)C(=O)O; dCha = N[C@H](CC1CCCCC1)C(=O)O; Phg = N[C@H](C(=O)O)c1ccccc1; 4Amb = NCc1ccc(C(=O)O)cc1; Nle = CCCC[C@H](N)C(=O)O; Aib = CC(C)(N)C(=O)O

T1: human Y2 receptor (human, UniProt P49146 1-381)
T1 construct: whole, on cells; used as membrane fraction of hY2R/CHO cells; also called human NPY2R; hY2R
T1 sequence (looked up): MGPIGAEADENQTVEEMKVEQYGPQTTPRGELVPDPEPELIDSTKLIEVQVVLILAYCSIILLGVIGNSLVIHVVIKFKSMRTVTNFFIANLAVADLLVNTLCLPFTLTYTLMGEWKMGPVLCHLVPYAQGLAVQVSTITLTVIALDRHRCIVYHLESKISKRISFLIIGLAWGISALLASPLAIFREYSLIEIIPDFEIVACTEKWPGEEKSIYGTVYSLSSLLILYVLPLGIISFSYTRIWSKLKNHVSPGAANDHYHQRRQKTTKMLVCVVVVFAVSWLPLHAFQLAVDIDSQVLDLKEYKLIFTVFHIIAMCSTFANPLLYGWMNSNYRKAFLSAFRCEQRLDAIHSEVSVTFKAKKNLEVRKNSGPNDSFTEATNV


Tests used:
human Y2 receptor [1] = target: T1, human Y2 receptor; test: RBA: [125I]-PYY displacement, hY2R/CHO membranes
How it was run: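 Bound radioligand was collected by filtration on PEI-treated GF/C filters, washed with Tris/MgCl₂/NaCl/CHAPS buffer pH 7.4, and counted by scintillation; IC₅₀ values were calculated.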

human Y2 receptor [2] = target: T1, human Y2 receptor; test: cell-based or functional assay

Binder	IC50 Ratio (vs PYY(3-36)) (human Y2 receptor [1]) [ratio]	GBA EC50 Ratio (vs PYY(3-36)), [35S]GTPγS (human Y2 receptor [2]) [ratio]
[4Amb]RA[Nle]INLITRQRY-NH2 (N-terminus assumed; SMILES CCCC[C@H](NC(=O)[C@H](C)NC(=O)[C@H](CCCNC(=N)N)NC(=O)c1ccc(CN)cc1)C(=O)N[C@H](C(=O)N[C@@H](CC(N)=O)C(=O)N[C@@H](CC(C)C)C(=O)N[C@H](C(=O)N[C@H](C(=O)N[C@@H](CCCNC(=N)N)C(=O)N[C@@H](CCC(N)=O)C(=O)N[C@@H](CCCNC(=N)N)C(=O)N[C@@H](Cc1ccc(O)cc1)C(N)=O)[C@@H](C)O)[C@@H](C)CC)[C@@H](C)CC, also called compound No. 43) [4-Aminomethylbenzoyl-[Ala26, Nle27, Ile28,31]-PYY(25-36)]	4.6	2.3
Ac-[dF]RAYINLITRQRY-NH2 (SMILES CC[C@H](C)[C@H](NC(=O)[C@H](Cc1ccc(O)cc1)NC(=O)[C@H](C)NC(=O)[C@H](CCCNC(=N)N)NC(=O)[C@@H](Cc1ccccc1)NC(C)=O)C(=O)N[C@@H](CC(N)=O)C(=O)N[C@@H](CC(C)C)C(=O)N[C@H](C(=O)N[C@H](C(=O)N[C@@H](CCCNC(=N)N)C(=O)N[C@@H](CCC(N)=O)C(=O)N[C@@H](CCCNC(=N)N)C(=O)N[C@@H](Cc1ccc(O)cc1)C(N)=O)[C@@H](C)O)[C@@H](C)CC, also called compound No. 35) [Ac-[D-Phe24, Ala26, Ile28,31]-PYY(24-36)]	14	8.7
[4Amb]RAYI[Aib]LITRQRY-NH2 (N-terminus assumed; SMILES CC[C@H](C)[C@H](NC(=O)[C@H](CC(C)C)NC(=O)C(C)(C)NC(=O)[C@@H](NC(=O)[C@H](Cc1ccc(O)cc1)NC(=O)[C@H](C)NC(=O)[C@H](CCCNC(=N)N)NC(=O)c1ccc(CN)cc1)[C@@H](C)CC)C(=O)N[C@H](C(=O)N[C@@H](CCCNC(=N)N)C(=O)N[C@@H](CCC(N)=O)C(=O)N[C@@H](CCCNC(=N)N)C(=O)N[C@@H](Cc1ccc(O)cc1)C(N)=O)[C@@H](C)O, also called compound No. 46) [4-Aminomethylbenzoyl-[Ala26, Ile28,31, Aib29]-PYY(25-36)]	87	34
[dR]LRAYINLITRQRY-NH2 (N-terminus assumed; SMILES CC[C@H](C)[C@H](NC(=O)[C@H](Cc1ccc(O)cc1)NC(=O)[C@H](C)NC(=O)[C@H](CCCNC(=N)N)NC(=O)[C@H](CC(C)C)NC(=O)[C@H](N)CCCNC(=N)N)C(=O)N[C@@H](CC(N)=O)C(=O)N[C@@H](CC(C)C)C(=O)N[C@H](C(=O)N[C@H](C(=O)N[C@@H](CCCNC(=N)N)C(=O)N[C@@H](CCC(N)=O)C(=O)N[C@@H](CCCNC(=N)N)C(=O)N[C@@H](Cc1ccc(O)cc1)C(N)=O)[C@@H](C)O)[C@@H](C)CC, also called compound No. 27) [[D-Arg23, Ala26, Ile28,31]-PYY(23-36)]	4.5	3.6
[4Amb]RAYINL[Cha]TRQRY-NH2 (N-terminus assumed; SMILES CC[C@H](C)[C@H](NC(=O)[C@H](Cc1ccc(O)cc1)NC(=O)[C@H](C)NC(=O)[C@H](CCCNC(=N)N)NC(=O)c1ccc(CN)cc1)C(=O)N[C@@H](CC(N)=O)C(=O)N[C@@H](CC(C)C)C(=O)N[C@@H](CC1CCCCC1)C(=O)N[C@H](C(=O)N[C@@H](CCCNC(=N)N)C(=O)N[C@@H](CCC(N)=O)C(=O)N[C@@H](CCCNC(=N)N)C(=O)N[C@@H](Cc1ccc(O)cc1)C(N)=O)[C@@H](C)O, also called compound No. 41) [4-Aminomethylbenzoyl-[Ala26, Ile28, Cha31]-PYY(25-36)]	15	8.7
Ac-[Cha]RAYINLITRQRY-NH2 (SMILES CC[C@H](C)[C@H](NC(=O)[C@H](Cc1ccc(O)cc1)NC(=O)[C@H](C)NC(=O)[C@H](CCCNC(=N)N)NC(=O)[C@H](CC1CCCCC1)NC(C)=O)C(=O)N[C@@H](CC(N)=O)C(=O)N[C@@H](CC(C)C)C(=O)N[C@H](C(=O)N[C@H](C(=O)N[C@@H](CCCNC(=N)N)C(=O)N[C@@H](CCC(N)=O)C(=O)N[C@@H](CCCNC(=N)N)C(=O)N[C@@H](Cc1ccc(O)cc1)C(N)=O)[C@@H](C)O)[C@@H](C)CC, also called compound No. 36) [Ac-[Cha24, Ala26, Ile28,31]-PYY(24-36)]	17	13
[4Amb]RAYINL[Phg]TRQRY-NH2 (N-terminus assumed; SMILES CC[C@H](C)[C@H](NC(=O)[C@H](Cc1ccc(O)cc1)NC(=O)[C@H](C)NC(=O)[C@H](CCCNC(=N)N)NC(=O)c1ccc(CN)cc1)C(=O)N[C@@H](CC(N)=O)C(=O)N[C@@H](CC(C)C)C(=O)N[C@H](C(=O)N[C@H](C(=O)N[C@@H](CCCNC(=N)N)C(=O)N[C@@H](CCC(N)=O)C(=O)N[C@@H](CCCNC(=N)N)C(=O)N[C@@H](Cc1ccc(O)cc1)C(N)=O)[C@@H](C)O)c1ccccc1, also called compound No. 40) [4-Aminomethylbenzoyl-[Ala26, Ile28, Phg31]-PYY(25-36)]	71	27
{4‑(((imino(octylamino)methyl)amino)methyl)benzoyl}-RAYINLITRQRY-NH2 (also called compound No. 28) [4-({[imino(octylamino)methyl]amino}methyl)benzoyl-[Ala26, Ile28,31]-PYY(25-36)]	14	12
RYYASLRAYINLITRQRY-NH2 (also called compound No. 2) [[Ala26, Ile28,31]-PYY(19-36)]	4.9	2.1
[4Amb]RA[4Pal]INLITRQRY-NH2 (N-terminus assumed; SMILES CC[C@H](C)[C@H](NC(=O)[C@H](Cc1ccncc1)NC(=O)[C@H](C)NC(=O)[C@H](CCCNC(=N)N)NC(=O)c1ccc(CN)cc1)C(=O)N[C@@H](CC(N)=O)C(=O)N[C@@H](CC(C)C)C(=O)N[C@H](C(=O)N[C@H](C(=O)N[C@@H](CCCNC(=N)N)C(=O)N[C@@H](CCC(N)=O)C(=O)N[C@@H](CCCNC(=N)N)C(=O)N[C@@H](Cc1ccc(O)cc1)C(N)=O)[C@@H](C)O)[C@@H](C)CC, also called compound No. 44) [4-Aminomethylbenzoyl-[Ala26, Pya(4)27, Ile28,31]-PYY(25-36)]	3.8	2.6
Ac-[dCha]RAYINLITRQRY-NH2 (SMILES CC[C@H](C)[C@H](NC(=O)[C@H](Cc1ccc(O)cc1)NC(=O)[C@H](C)NC(=O)[C@H](CCCNC(=N)N)NC(=O)[C@@H](CC1CCCCC1)NC(C)=O)C(=O)N[C@@H](CC(N)=O)C(=O)N[C@@H](CC(C)C)C(=O)N[C@H](C(=O)N[C@H](C(=O)N[C@@H](CCCNC(=N)N)C(=O)N[C@@H](CCC(N)=O)C(=O)N[C@@H](CCCNC(=N)N)C(=O)N[C@@H](Cc1ccc(O)cc1)C(N)=O)[C@@H](C)O)[C@@H](C)CC, also called compound No. 37) [Ac-[D-Cha24, Ala26, Ile28,31]-PYY(24-36)]	7.6	4.6
[4Amb]RHYKNLIERQRY-NH2 (lactam 5-9; N-terminus assumed; SMILES CC[C@H](C)[C@@H]1NC(=O)[C@H](CC(C)C)NC(=O)[C@H](CC(N)=O)NC(=O)[C@@H](NC(=O)[C@H](Cc2ccc(O)cc2)NC(=O)[C@H](Cc2c[nH]cn2)NC(=O)[C@H](CCCNC(=N)N)NC(=O)c2ccc(CN)cc2)CCCCNC(=O)CC[C@@H](C(=O)N[C@@H](CCCNC(=N)N)C(=O)N[C@@H](CCC(N)=O)C(=O)N[C@@H](CCCNC(=N)N)C(=O)N[C@@H](Cc2ccc(O)cc2)C(N)=O)NC1=O, also called compound No. 26) [cyclo(28-32)-4-Aminomethylbenzoyl-[Lys28, Ile31, Glu32]-PYY(25-36)]	18	11
[4Amb]RAYINL[Nle]TRQRY-NH2 (N-terminus assumed; SMILES CCCC[C@H](NC(=O)[C@H](CC(C)C)NC(=O)[C@H](CC(N)=O)NC(=O)[C@@H](NC(=O)[C@H](Cc1ccc(O)cc1)NC(=O)[C@H](C)NC(=O)[C@H](CCCNC(=N)N)NC(=O)c1ccc(CN)cc1)[C@@H](C)CC)C(=O)N[C@H](C(=O)N[C@@H](CCCNC(=N)N)C(=O)N[C@@H](CCC(N)=O)C(=O)N[C@@H](CCCNC(=N)N)C(=O)N[C@@H](Cc1ccc(O)cc1)C(N)=O)[C@@H](C)O, also called compound No. 42) [4-Aminomethylbenzoyl-[Ala26, Ile28, Nle31]-PYY(25-36)]	10	5.7
[4Amb]RAYIN[Aib]ITRQRY-NH2 (N-terminus assumed; SMILES CC[C@H](C)[C@H](NC(=O)[C@H](Cc1ccc(O)cc1)NC(=O)[C@H](C)NC(=O)[C@H](CCCNC(=N)N)NC(=O)c1ccc(CN)cc1)C(=O)N[C@@H](CC(N)=O)C(=O)NC(C)(C)C(=O)N[C@H](C(=O)N[C@H](C(=O)N[C@@H](CCCNC(=N)N)C(=O)N[C@@H](CCC(N)=O)C(=O)N[C@@H](CCCNC(=N)N)C(=O)N[C@@H](Cc1ccc(O)cc1)C(N)=O)[C@@H](C)O)[C@@H](C)CC, also called compound No. 47) [4-Aminomethylbenzoyl-[Ala26, Ile28,31, Aib30]-PYY(25-36)]	49	23
